Reference: patent publication US20100260765A1 (AstraZeneca / MedImmune, published 2010)

Tests used:
human KDR [1] = target: T1, human KDR (human, UniProt P35968 20-1356); test: cell-based or functional assay
human KDR [2] = target: T1, human KDR; test: cell-based or functional assay; remark: listed apart in the source
human KDR [3] = target: T1, human KDR; test: cell-based or functional assay; remark: listed apart in the source
[4] = target: T2, mouse KDR (Flk-1)/Fc (Cat. #443-KD/CF, R&D Systems, Inc.) (mouse, UniProt P35918 20-762); test: ELISA, Flk-1 coat 5 ug/mL, antibody 1 ug/mL
T2 construct: Bought reagent; also called mouse VEGFR2; KDR mouse ortholog; not shown: Fc of the bought fusion protein
Protocol: (§1) The cross-reactivity of purified antibodies was tested against KDR mouse ortholog KDR mouse ortholog (mouse VEGFR2, or Flk-1) and human VEGFR1 (Flt-1). The ability of the antibodies to bind soluble KDR Ig4-7 domain and to the entire KDR extracellular domain (ECD) was also measured.
(§2) Cross-reactivity experiments were carried out and measured using an ELISA based assay as described in Example 6. […] Antibody controls included IgG1 and IgG4 (Sigma-Aldrich, Cat. #15154 and #14639, respectively).

[5] = target: T2, mouse KDR (Flk-1)/Fc (Cat. #443-KD/CF, …); test: ELISA, Flk-1 coat 5 ug/mL, antibody 0.1 ug/mL
Protocol: as §1, §2

[6] = target: T3, whole KDR-ECD (Cat. # 676490, Calbiochem) (human, UniProt P35968 20-764); test: ELISA, KDR-ECD coat 5 ug/mL, antibody 1 ug/mL
T3 construct: extracellular domain; Bought soluble protein; also called soluble KDR; VEGF Receptor 2 D1-7
Protocol: as §1, §2

[7] = target: T2, mouse KDR (Flk-1)/Fc (Cat. #443-KD/CF, …); test: ELISA, Flk-1 coat 5 ug/mL, antibody 0.01 ug/mL
Protocol: as §1, §2

[8] = target: T3, whole KDR-ECD (Cat. # 676490, …); test: ELISA, KDR-ECD coat 5 ug/mL, antibody 0.1 ug/mL
Protocol: as §1, §2

[9] = target: T3, whole KDR-ECD (Cat. # 676490, …); test: ELISA, KDR-ECD coat 5 ug/mL, antibody 0.01 ug/mL
Protocol: as §1, §2

soluble KDR Ig4-7 domain [10] = target: T4, soluble KDR Ig4-7 domain (human, UniProt P35968 328-764); test: ELISA, KDR Ig4-7 coat (1:1 diln.), antibody 1 ug/mL
T4 construct: domain: Ig4-7 domain; also called b-KDRIg4-7-myc-his; Ig4-7 domain of KDR; not shown: myc-his tag of the pSecTag construct
Protocol: as §1, §2

soluble KDR Ig4-7 domain [11] = target: T4, soluble KDR Ig4-7 domain; test: ELISA, KDR Ig4-7 coat (1:1 diln.), antibody 0.1 ug/mL
Protocol: as §1, §2

cynomolgus KDR = target: T5, cynomolgus KDR (cynomolgus monkey, UniProt A0A2K5VE63 20-1356); test: FACS on Cyno KDR/293T transfectants, antibody 5 ug/mL
T5 construct: whole, on cells; also called Cyno KDR
Protocol: The binding of purified antibodies to cell-bound cynomolgus KDR (with parental cells as negative control) was tested by FACS analysis in this assay.
Cynomolgus KDR was cloned in 3 pieces. One piece was PCR amplified from cynomolgus lung cDNA, and the remaining two pieces were PCR amplified from cynomolgus kidney cDNA. The three PCR products were inserted into pCR3.1 Bid vector. […] Transfected cells were seeded at 50,000 cells/well and incubated with 5 μg/mL of candidate antibody for one hour at 4° C. The cells were then washed and incubated with secondary antibody (Cy5-conjugated goat anti-human antibody, or Cy5-conjugated rabbit anti-goat antibody, plus 7-Amino-Actinomycin (7AAD)) for 15 minutes at 4° C. Binding between cynomolgus KDR and purified antibody was detected by FACS analysis.

soluble KDR Ig4-7 domain [12] = target: T4, soluble KDR Ig4-7 domain; test: ELISA, KDR Ig4-7 coat (1:1 diln.), antibody 0.01 ug/mL
Protocol: as §1, §2

human KDR [13] = target: T1, human KDR; test: FACS titration of purified antibody on HUVEC cells (FACS Kd)
Protocol: The binding affinities of the purified antibodies for endogenously-expressed KDR in HUVEC cells was measured. HUVEC cells were seeded at 150,000 cells/well and incubated with titrations of purified antibody for 4 hours at 4° C. The cells were then washed and incubated with goat anti-human IgG-Fc-Cy5+5 μg/mL 7-Amino-Actinomycin (7AAD) for 30 minutes at 4° C. Bound KDR was detected using FACS analysis.

human KDR [14] = target: T1, human KDR; test: FACS competition on 293T/human KDR transfectants; antibody 5 ug/mL first, then competitor VEGF165 50 ng/mL; bound VEGF165 detected
Protocol: (§3) Transfected cells were then seeded at 50,000 cells/well and incubated with 5 μg/mL of candidate antibody for one hour at 4° C. […] After washing, the cells were incubated with Cy5-conjugated rabbit anti-goat antibody plus 7AAD for 15 minutes at 4° C.

human KDR [15] = target: T1, human KDR; test: FACS competition on 293T/human KDR transfectants; antibody 5 ug/mL first, then competitor VEGF165 50 ng/mL; inhibition of VEGF binding
Protocol: as §3

T1 sequence (P35968 20-1356): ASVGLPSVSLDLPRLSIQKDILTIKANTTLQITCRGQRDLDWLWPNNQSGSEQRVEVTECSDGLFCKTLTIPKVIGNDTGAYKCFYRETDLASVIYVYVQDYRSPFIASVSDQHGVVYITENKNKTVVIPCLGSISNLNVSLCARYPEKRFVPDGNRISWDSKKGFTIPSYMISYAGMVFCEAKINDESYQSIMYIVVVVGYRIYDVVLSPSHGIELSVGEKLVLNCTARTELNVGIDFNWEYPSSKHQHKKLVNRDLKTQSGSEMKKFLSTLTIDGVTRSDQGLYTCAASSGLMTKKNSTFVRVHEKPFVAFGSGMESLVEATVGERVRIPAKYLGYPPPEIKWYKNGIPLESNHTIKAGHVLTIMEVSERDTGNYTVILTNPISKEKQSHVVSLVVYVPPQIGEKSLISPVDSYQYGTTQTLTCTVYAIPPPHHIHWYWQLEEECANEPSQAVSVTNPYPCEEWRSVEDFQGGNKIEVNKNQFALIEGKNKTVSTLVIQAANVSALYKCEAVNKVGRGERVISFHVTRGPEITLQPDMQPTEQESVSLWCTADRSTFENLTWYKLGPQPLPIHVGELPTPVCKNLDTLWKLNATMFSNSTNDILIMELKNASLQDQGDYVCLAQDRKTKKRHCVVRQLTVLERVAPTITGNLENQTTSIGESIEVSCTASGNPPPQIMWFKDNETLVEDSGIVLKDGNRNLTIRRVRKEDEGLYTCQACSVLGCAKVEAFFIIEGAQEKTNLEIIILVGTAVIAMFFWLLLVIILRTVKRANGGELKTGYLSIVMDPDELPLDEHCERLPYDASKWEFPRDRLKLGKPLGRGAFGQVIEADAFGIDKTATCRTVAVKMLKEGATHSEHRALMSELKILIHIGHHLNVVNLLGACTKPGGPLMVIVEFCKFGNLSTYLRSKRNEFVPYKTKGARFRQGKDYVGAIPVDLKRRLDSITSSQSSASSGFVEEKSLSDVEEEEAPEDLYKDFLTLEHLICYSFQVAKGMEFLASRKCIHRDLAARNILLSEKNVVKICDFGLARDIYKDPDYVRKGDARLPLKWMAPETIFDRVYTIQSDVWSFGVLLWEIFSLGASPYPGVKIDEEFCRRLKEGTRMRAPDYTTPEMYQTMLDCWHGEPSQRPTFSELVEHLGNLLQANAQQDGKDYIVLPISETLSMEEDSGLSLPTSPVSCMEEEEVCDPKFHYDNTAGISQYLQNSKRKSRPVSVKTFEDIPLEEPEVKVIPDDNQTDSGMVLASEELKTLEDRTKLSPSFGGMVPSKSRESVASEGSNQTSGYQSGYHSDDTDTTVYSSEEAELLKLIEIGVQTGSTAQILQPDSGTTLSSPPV
T2 sequence (P35918 20-762 limits assumed): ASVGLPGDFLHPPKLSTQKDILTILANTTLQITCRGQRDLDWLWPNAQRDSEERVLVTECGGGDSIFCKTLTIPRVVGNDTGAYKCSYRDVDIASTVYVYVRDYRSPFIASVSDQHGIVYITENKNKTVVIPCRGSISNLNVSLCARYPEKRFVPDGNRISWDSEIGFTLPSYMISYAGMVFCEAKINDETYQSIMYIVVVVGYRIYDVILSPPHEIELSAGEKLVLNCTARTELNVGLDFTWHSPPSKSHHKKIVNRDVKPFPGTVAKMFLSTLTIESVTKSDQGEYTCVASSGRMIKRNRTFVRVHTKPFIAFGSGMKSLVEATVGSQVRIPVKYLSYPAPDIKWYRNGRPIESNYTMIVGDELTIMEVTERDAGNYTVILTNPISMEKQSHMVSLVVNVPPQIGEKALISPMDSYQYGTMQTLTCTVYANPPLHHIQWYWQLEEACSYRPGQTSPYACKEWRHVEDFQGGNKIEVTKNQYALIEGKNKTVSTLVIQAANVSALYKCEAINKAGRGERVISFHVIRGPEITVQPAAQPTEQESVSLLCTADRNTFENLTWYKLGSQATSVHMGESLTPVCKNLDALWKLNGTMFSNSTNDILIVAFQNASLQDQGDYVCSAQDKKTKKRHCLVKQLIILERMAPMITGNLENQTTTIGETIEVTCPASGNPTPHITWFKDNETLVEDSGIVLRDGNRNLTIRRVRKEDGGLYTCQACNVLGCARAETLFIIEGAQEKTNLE
T3 sequence (P35968 20-764): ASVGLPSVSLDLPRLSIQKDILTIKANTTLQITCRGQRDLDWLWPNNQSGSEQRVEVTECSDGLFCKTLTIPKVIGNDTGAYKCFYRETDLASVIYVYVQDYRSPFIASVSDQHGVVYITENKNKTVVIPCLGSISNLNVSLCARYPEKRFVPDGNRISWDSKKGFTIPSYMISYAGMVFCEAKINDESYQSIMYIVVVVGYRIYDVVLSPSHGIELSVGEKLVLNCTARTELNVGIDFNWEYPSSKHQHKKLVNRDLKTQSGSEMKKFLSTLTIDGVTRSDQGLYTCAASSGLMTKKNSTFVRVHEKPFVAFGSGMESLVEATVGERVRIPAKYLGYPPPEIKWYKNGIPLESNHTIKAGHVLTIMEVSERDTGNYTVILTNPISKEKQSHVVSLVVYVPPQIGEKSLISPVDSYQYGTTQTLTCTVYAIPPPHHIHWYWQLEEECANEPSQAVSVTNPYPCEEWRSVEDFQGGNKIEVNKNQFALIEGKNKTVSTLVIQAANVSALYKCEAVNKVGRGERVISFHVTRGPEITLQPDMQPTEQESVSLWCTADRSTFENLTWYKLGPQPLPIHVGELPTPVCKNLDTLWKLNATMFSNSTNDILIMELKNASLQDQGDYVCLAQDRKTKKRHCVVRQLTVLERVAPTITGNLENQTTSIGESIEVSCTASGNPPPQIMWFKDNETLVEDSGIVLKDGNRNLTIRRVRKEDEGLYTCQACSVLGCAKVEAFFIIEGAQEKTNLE
T4 sequence (P35968 328-764): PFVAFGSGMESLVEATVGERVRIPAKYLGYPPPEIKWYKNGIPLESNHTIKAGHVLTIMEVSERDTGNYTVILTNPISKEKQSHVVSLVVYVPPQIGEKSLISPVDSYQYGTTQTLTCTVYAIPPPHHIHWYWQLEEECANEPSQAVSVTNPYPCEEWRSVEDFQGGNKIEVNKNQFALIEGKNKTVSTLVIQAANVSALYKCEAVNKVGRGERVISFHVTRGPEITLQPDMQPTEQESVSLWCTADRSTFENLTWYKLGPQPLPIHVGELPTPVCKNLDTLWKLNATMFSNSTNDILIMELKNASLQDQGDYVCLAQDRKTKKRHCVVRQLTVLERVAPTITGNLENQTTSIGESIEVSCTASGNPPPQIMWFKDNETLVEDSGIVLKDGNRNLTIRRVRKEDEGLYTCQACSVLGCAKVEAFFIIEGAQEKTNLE
T5 sequence (A0A2K5VE63 entry or part of it): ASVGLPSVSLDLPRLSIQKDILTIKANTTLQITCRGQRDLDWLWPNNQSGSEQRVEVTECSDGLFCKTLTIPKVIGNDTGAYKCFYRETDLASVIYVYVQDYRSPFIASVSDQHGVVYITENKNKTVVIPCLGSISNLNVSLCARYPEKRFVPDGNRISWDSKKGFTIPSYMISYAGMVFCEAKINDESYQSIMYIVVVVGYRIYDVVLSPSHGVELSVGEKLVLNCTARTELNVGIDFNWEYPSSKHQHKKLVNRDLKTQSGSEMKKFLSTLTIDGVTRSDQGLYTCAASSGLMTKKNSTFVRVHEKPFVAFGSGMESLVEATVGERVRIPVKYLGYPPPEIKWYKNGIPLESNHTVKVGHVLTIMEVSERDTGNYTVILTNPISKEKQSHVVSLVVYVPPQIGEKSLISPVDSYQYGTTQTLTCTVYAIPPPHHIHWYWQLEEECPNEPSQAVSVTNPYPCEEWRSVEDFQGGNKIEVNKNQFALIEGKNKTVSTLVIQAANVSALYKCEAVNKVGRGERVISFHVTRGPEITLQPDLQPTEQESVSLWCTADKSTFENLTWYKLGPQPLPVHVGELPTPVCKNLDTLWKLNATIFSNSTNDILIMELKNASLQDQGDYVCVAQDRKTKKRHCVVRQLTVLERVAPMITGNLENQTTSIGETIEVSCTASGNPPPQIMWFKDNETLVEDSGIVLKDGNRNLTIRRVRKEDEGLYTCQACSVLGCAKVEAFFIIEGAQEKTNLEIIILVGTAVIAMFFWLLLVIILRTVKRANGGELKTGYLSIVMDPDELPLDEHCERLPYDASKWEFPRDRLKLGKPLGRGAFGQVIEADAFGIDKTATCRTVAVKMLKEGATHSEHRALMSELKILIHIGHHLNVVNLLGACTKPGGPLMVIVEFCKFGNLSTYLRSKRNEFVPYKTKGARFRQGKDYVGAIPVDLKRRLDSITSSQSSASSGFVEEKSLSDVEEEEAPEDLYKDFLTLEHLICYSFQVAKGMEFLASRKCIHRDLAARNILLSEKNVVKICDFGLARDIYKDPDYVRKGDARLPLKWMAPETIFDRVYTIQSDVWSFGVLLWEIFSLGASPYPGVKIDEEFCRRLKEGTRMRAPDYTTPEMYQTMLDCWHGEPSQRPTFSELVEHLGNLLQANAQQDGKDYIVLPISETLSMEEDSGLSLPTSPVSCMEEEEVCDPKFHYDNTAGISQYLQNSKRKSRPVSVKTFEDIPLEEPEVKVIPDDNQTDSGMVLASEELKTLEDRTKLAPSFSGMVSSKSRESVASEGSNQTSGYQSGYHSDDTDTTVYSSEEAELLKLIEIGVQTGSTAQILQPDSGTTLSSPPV

Row | Binder | KDR tyrosine phosphorylation in HUVEC, EC50 (nM), Average (human KDR [1]) [nM] | KDR tyrosine phosphorylation in HUVEC, EC50 (nM), N = 1 (human KDR [1]) [nM] | KDR tyrosine phosphorylation in HUVEC, EC50 (nM), N = 2 (human KDR [1]) [nM] | KDR tyrosine phosphorylation in HUVEC, Maximum Inhibition at 100 nM (% Inhibition), Average (human KDR [1]) [%] | KDR tyrosine phosphorylation in HUVEC, Maximum Inhibition at 100 nM (% Inhibition), N = 1 (human KDR [1]) [%] | KDR tyrosine phosphorylation in HUVEC, Maximum Inhibition at 100 nM (% Inhibition), N = 2 (human KDR [1]) [%] | HUVEC survival, Maximum Inhibition at 50 nM (% Inhibition), Average (human KDR [2]) [%] | HUVEC survival, Maximum Inhibition at 50 nM (% Inhibition), N = 1 (human KDR [2]) [%] | HUVEC survival, Maximum Inhibition at 50 nM (% Inhibition), N = 2 (human KDR [2]) [%] | 6-keto Prostaglandin F1α release, EC50 (nM), Average (human KDR [3]) [nM] | 6-keto Prostaglandin F1α release, EC50 (nM), N = 1 (human KDR [3]) [nM] | 6-keto Prostaglandin F1α release, EC50 (nM), N = 2 (human KDR [3]) [nM] | 6-keto Prostaglandin F1α release, Maximum Inhibition (% Inhibition), Average (human KDR [3]) [%] | 6-keto Prostaglandin F1α release, Maximum Inhibition (% Inhibition), N = 1 (200 nM) (human KDR [3]) [%] | 6-keto Prostaglandin F1α release, Maximum Inhibition (% Inhibition), N = 2 (333 nM) (human KDR [3]) [%] | ELISA reading [4] | ELISA reading [5] | ELISA reading [6] | ELISA reading [7] | ELISA reading [8] | also measured
1 | 29D4 (antibody, V domains shown, Fully human monoclonal antibody from a XenoMouse hybridoma (IgG2 or IgG4 strain), purified) VH: QLQLQESGPGLVKPSETLSLTCTVSGGSISSRSNYWGWIRQPPGKGLEWIGTIYYSGHTYYNPSLKSRVSISVDTSKNQFSLKLSSVTATDTALYYCARQQLVLYYFEYWGQGTLVTVSS VL: not shown | 1.9 | 2 | 1.9 | 75 | 74 | 77 | 92 | 89 | 95 | 3.2 | 3.2 | 3.2 | 56 | 45 | 67 | 3.29 | 2.59 | 2.15 | 1.17 | 0.096 | ELISA reading [9]: 0.089; ELISA reading (soluble KDR Ig4-7 domain [10]): 0.082; ELISA reading (soluble KDR Ig4-7 domain [11]): 0.078; FACS Geometric Mean Fluorescence (cynomolgus KDR): 115; ELISA reading (soluble KDR Ig4-7 domain [12]): 0.08; Kd (human KDR [13]): 1 nM; FACS Geometric Mean Fluorescence (bound VEGF165) (human KDR [14]): 116; % Inhibition (human KDR [15]): 11%
2 | 32F4 (antibody, V domains shown, Fully human monoclonal antibody from a XenoMouse hybridoma (IgG2 or IgG4 strain), purified) VH: QLQLQESGPGLVKPSGTLSLSCTVSGGSISSRSDYWGWIRQPPGKGLEWIGTIYYSGNTFYNPSLKSRVTISVDTSKKQFSLKLSSVTAADTAVYYCARQQLVLYYFDYWGQGTLVTVSS VL: EIVLTQSPGTLSLSPGERATLSCRTSQSVSSSYLAWYQQKPGQAPRLLIYGASSRATGVPDRFSGSGSGTDFSLTISRLEPEDFAVYYCQQYGSSPPLTFGGGTKVEIK | 1.8 | 1.7 | 1.9 | 75 | 71 | 79 | 92 | 91 | 94 | 4.5 | 4.4 | 4.6 | 48 | 42 | 54 | 2.62 | 2 | 1.93 | 0.802 | 0.132 | ELISA reading [9]: 0.09; ELISA reading (soluble KDR Ig4-7 domain [10]): 0.114; ELISA reading (soluble KDR Ig4-7 domain [11]): 0.079; FACS Geometric Mean Fluorescence (cynomolgus KDR): 105; ELISA reading (soluble KDR Ig4-7 domain [12]): 0.076; Kd (human KDR [13]): 1.8 nM; FACS Geometric Mean Fluorescence (bound VEGF165) (human KDR [14]): 112; % Inhibition (human KDR [15]): 14%
